# Measurements as given in IntAct's records for PubMed 20368419.
# B1: Nibrin (Homo sapiens), O60934 (parent)
# chain: MWKLLPAAGPAGGEPYRLLTGVEYVVGRKNCAILIENDQSISRNHAVLTANFSVTNLSQTDEIPVLTLKDNSKYGTFVNEEKMQNGFSRTLKSGDGITFGVFGSKFRIEYEPLVACSSCLDVSGKTALNQAILQLGGFTVNNWTEECTHLVMVSVKVTIKTICALICGRPIVKPEYFTEFLKAVESKKQPPQIESFYPPLDEPSIGSKNVDLSGRQERKQIFKGKTFIFLNAKQHKKLSSAVVFGGGEARLITEENEEEHNFFLAPGTCVVDTGITNSQTLIPDCQKKWIQSIMDMLQRQGLRPIPEAEIGLAVIFMTTKNYCDPQGHPSTGLKTTTPGPSLSQGVSVDEKLMPSAPVNTTTYVADTESEQADTWDLSERPKEIKVSKMEQKFRMLSQDAPTVKESCKTSSNNNSMVSNTLAKMRIPNYQLSPTKLPSINKSKDRASQQQQTNSIRNYFQPSTKKRERDEENQEMSSCKSARIETSCSLLEQTQPATPSLWKNKEQHLSENEPVDTNSDNNLFTDTDLKSIVKNSASKSHAAEKLRSNKKREMDDVAIEDEVLEQLFKDTKPELEIDVKVQKQEEDVNVRKRPRMDIETNDTFSDEAVPESSKISQENEIGKKRELKEDSLWSAKEISNNDKLQDDSEMLPKKLLLTEFRSLVIKNSTSRNPSGINDDYGQLKNFKKFKKVTYPGAGKLPHIIGGSDLIAHHARKNTELEEWLRQEMEVQNQHAKEESLADDLFRYNPYLKRRR
# Variants of: B1
# Settings: with pk3cb_human PIK3CB
row,effect of a mutation on the interaction,Variant
1,decreasing interaction,S661A;L662A;V663A
2,decreasing interaction,K653A;L654A;L655A;L656A
